From paper PMC4047056

Biological target: Kv2.1 subunit (unlabeled) (human) (UniProt Q14721)

B1: Kv6.4 subunit (unlabeled) (natural protein)
chain: MPMPSRDGGLHPRHHHYGSHSPWSQLLSSPMETPSIKGLYYRRVRKVGALDASPVDLKKEILINVGGRRYLLPWSTLDRFPLSRLSKLRLCRSYEEIVQLCDDYDEDSQEFFFDRSPSAFGVIVSFLAAGKLVLLQEMCALSFQEELAYWGIEEAHLERCCLRKLLRKLEELEELAKLHREDVLRQQRETRRPASHSSRWGLCMNRLREMVENPQSGLPGKVFACLSILFVATTAVSLCVSTMPDLRAEEDQGECSRKCYYIFIVETICVAWFSLEFCLRFVQAQDKCQFFQGPLNIIDILAISPYYVSLAVSEEPPEDGERPSGSSYLEKVGLVLRVLRALRILYVMRLARHSLGLQTLGLTVRRCTREFGLLLLFLAVAITLFSPLVYVAEKESGRVLEFTSIPASYWWAIISMTTVGYGDMVPRSVPGQMVALSSILSGILIMAFPATSIFHTFSHSYLELKKEQEQLQARLRHLQNTGPASECELLDPHVASEHELMNDVNDLILEGPALPIMHM
With B1 the midpoint of the voltage dependence of inactivation, V1/2, of whole-cell currents in HEK293 cells co-expressing Kv2.1 and Kv6.4 (Kv2.1 alone: −22.6 mV) was -59.3 mV.
